The values that follow come from patent US20240190999A1.

The assay addresses human 4-1BB on primary human CD8 T cells (human) (UniProt Q07011). The assay can be described thus: cell-based or functional assay.

Chain of human 4-1BB on primary human CD8 T cells (human) (Q07011 24-255 limits assumed): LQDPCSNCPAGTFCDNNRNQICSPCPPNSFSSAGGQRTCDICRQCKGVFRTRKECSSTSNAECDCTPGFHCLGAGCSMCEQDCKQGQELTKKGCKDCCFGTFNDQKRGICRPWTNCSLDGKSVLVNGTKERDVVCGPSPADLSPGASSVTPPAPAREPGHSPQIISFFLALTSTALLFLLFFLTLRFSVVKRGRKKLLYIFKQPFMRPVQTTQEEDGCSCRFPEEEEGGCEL

Substance Anti-4-1BB mAb 20H4.9 (antibody) showed an EC50, IFNγ production by primary human CD8 T cells, antibody cross-linked via anti-Fc of 0.02 nM; an EC50, IFNγ production by primary human CD8 T cells, antibody soluble of 0.93 nM; an EC50, IFNγ production by primary human CD8 T cells, cross-linked via coated anti-Fc of 0.04 nM; an EC50, IFNγ production by primary human CD8 T cells, without Fc-cross-linking of 0.97 nM.
Substance Anti-4-1BB mAb MOR-7480 (antibody) showed an EC50, IFNγ production by primary human CD8 T cells, Fc-mediated cross-linking of 0.42 nM and an EC50, IFNγ production by primary human CD8 T cells, antibody cross-linked via anti-Fc of 0.21 nM.
